Key:
[1] = molecular target: adenylate kinase 2 (AK2), recombinant human (human, UniProt P54819 1-239); assay: SEC
SEC = molecular target: the molecule itself; assay: SEC

B1: AIFM1 ΔR201 (disease-related variant) (domain or fragment)
chain: LGLTPEQKQKKAALSASEGEEVPQDKAPSHVPFLLIGGGTAAFAAARSIRARDPGARVLIVSEDPELPYMRPPLSKELWFSDDPNVTKTLRFKQWNGKESIYFQPPSFYVSAQDLPHIENGGVAVLTGKKVVQLDVRDNMVKLNDGSQITYEKCLIATGGTPRSLSAIDRAGAEVKSRTTLFRKIGDFRSLEKISREVKSITIIGGGFLGSELACALGRKARALGTEVIQLFPEKGNMGKILPEYLSNWTMEKVRREGVKVMPNAIVQSVGVSSGKLLIKLKDGRKVETDHIVAAVGLEPNVELAKTGGLEIDSDFGGFRVNAELQARSNIWVAGDAACFYDIKLGRRRVEHHDHAVVSGRLAGENMTGAAKPYWHQSMFWSDLGPDVGYEAIGLVDSSLPTVGVFAKATAQDNPKSATEQSGTGIRSESETESEASEITIPPSTPAVPQAPVQGEDYGKGVIFYLRDKVVVGIVLWNIFNRMPIARKIIKDGEQHEDLNEVAKLFNIHED
Does B1 bind [1]?
Result: binds

What about the “stoichiometry N” value (SEC) of the same binder?
Its value is 2.
